According to publication PMC3792046 (PLoS ONE, 2013):

Tests used:
SB105-A10-PEG-biotin = assay: SPR; BIAcore X100; biotinylated SB105-A10 immobilised on SA streptavidin sensorchip (560 RU, 0,12 pmol/mm^2); gp41 (0.61-10 nM) or gp120 (12.5-100 nM) injected in HBS-EP (10 mM HEPES pH 7.4, 150 mM NaCl, 3 mM EDTA, 0.005% surfactant P20), 3 min association, 10 min wash; streptavidin-alone surface for blank subtraction; steady-state affinity from RU at equilibrium
gp120 = details: ref [71], [72]; cited from earlier work

HIV-1 glycosilated recombinant gp41 ectodomain (amino acids 546-682) (from UniProt P04578 546-682) (domain or fragment)
Kd (SB105-A10-PEG-biotin): 3.9 nM

cellulose sulfate
recognition of positively charged regions on gp120 (gp120): recognize positively charged regions on gp120
